Assay [1] concerns the target T1, human Izumo1_(22-254), wild type (human, UniProt Q8IYV9-1 22-254). Briefly: BLI. A general note: In BLI a coated tip is dipped into the sample, and binding shifts an interference pattern.
The target of assay [2] is T1, human Izumo1_(22-254), wild type. Briefly: SPR. Background: In SPR one partner is held on a chip, and binding of the other changes the refractive index at the surface.
For another assay, the target named is R160A Izumo1_(22-254) (human, UniProt Q8IYV9-1 22-254, R160A). Nature of the assay: BLI.
Chain of R160A Izumo1_(22-254) (Q8IYV9 22-254 R160A): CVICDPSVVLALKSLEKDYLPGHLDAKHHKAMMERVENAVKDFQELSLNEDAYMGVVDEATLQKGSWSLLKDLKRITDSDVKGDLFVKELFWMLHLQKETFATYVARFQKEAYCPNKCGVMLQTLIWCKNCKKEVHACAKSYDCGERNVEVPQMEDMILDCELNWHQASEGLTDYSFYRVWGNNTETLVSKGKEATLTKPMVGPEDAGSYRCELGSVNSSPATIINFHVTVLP
The target in a further assay is R160E Izumo1_(22-254) (human, UniProt Q8IYV9-1 22-254, R160E). Briefly: BLI.
Chain of R160E Izumo1_(22-254) (Q8IYV9 22-254 R160E): as the sequence (Q8IYV9 22-254 R160A) above, with A139E counted along it
The target of the next assay is E71A Izumo1_(22-254) (human, UniProt Q8IYV9-1 22-254, E71A). Nature of the assay: BLI.
Chain of E71A Izumo1_(22-254) (Q8IYV9 22-254 E71A): as the sequence (Q8IYV9 22-254 R160A) above, with E50A, A139R counted along it
The next assay has as its target E71K Izumo1_(22-254) (human, UniProt Q8IYV9-1 22-254, E71K). Briefly: BLI.
The target in another assay is D72A Izumo1_(22-254) (human, UniProt Q8IYV9-1 22-254, D72A). Nature of the assay: BLI.
Chain of D72A Izumo1_(22-254) (Q8IYV9 22-254 D72A): as the sequence (Q8IYV9 22-254 R160A) above, with D51A, A139R counted along it
For the next assay, the target named is Q130A Izumo1_(22-254) (human, UniProt Q8IYV9-1 22-254, Q130A). Nature of the assay: BLI.
Chain of Q130A Izumo1_(22-254) (Q8IYV9 22-254 Q130A): as the sequence (Q8IYV9 22-254 R160A) above, with Q109A, A139R counted along it
The next assay concerns the target H157A Izumo1_(22-254) (human, UniProt Q8IYV9-1 22-254, H157A). Briefly: BLI.

The values that follow come from paper PMC5319863 (Nature, 2016).

Broadly, the Kd is the equilibrium constant for the complex coming apart. High values mean weaker binding, low ones tighter binding. The term koff denotes the rate constant with which the complex falls apart. Higher therefore signals a short-lived complex. The kon is the second-order rate constant of association. A low value points to slow association.

Chain of E71K Izumo1_(22-254) (Q8IYV9 22-254 E71K): as the sequence (Q8IYV9 22-254 R160A) above, with E50K, A139R counted along it
Chain of H157A Izumo1_(22-254) (Q8IYV9 22-254 H157A): as the sequence (Q8IYV9 22-254 R160A) above, with H136A, A139R counted along it
T1 sequence (Q8IYV9 22-254): as the sequence (Q8IYV9 22-254 R160A) above, with A139R counted along it

B1: E45A Juno_(20-228) (domain or fragment, human, UniProt A6ND01-1 20-228, looked up)
chain: GDELLNICMNAKHHKRVPSPEDKLYAECIPWKDNACCTLTTSWEAHLDVSPLYNFSLFHCGLLMPGCRKHFIQAICFYECSPNLGPWIQPVGSLGWEVAPSGQGERVVNVPLCQEDCEEWWEDCRMSYTCKSNWRGGWDWSQGKNRCPKGAQCLPFSHYFPTPADLCEKTWSNSFKASPERRNSGRCLQKWFEPAQGNPNVAVARLFAS
modifications: biotinylated with the EZ link sulfo-NHS-LC-biotinylation kit (BLI)
For the molecule B1, in assay [1], the Kd worked out at 681 nM, the koff stood at 0.0247 s⁻¹ and the kon came out at 37000 M⁻¹ s⁻¹.

B2: L81A Juno_(20-228) (domain or fragment, human, UniProt A6ND01-1 20-228, looked up)
chain: GDELLNICMNAKHHKRVPSPEDKLYEECIPWKDNACCTLTTSWEAHLDVSPLYNFSLFHCGALMPGCRKHFIQAICFYECSPNLGPWIQPVGSLGWEVAPSGQGERVVNVPLCQEDCEEWWEDCRMSYTCKSNWRGGWDWSQGKNRCPKGAQCLPFSHYFPTPADLCEKTWSNSFKASPERRNSGRCLQKWFEPAQGNPNVAVARLFAS
modifications: biotinylated with the EZ link sulfo-NHS-LC-biotinylation kit (BLI)
Turning to B2, in assay [1], the Kd was found to be 9100 nM, the off-rate (koff) is 0.349 s⁻¹ and the on-rate (kon) was 40000 M⁻¹ s⁻¹.

B3: K163E Juno_(20-228) (domain or fragment, human, UniProt A6ND01-1 20-228, looked up)
chain: GDELLNICMNAKHHKRVPSPEDKLYEECIPWKDNACCTLTTSWEAHLDVSPLYNFSLFHCGLLMPGCRKHFIQAICFYECSPNLGPWIQPVGSLGWEVAPSGQGERVVNVPLCQEDCEEWWEDCRMSYTCKSNWRGGWDWSQGENRCPKGAQCLPFSHYFPTPADLCEKTWSNSFKASPERRNSGRCLQKWFEPAQGNPNVAVARLFAS
modifications: biotinylated with the EZ link sulfo-NHS-LC-biotinylation kit (in the BLI assay only)
In assay [1], B3 had a Kd of 134 nM, a koff of 0.0242 s⁻¹ and an association rate constant (kon) of 181000 M⁻¹ s⁻¹.

B4: human Juno_(20-228), wild type (domain or fragment, UniProt A6ND01-1 20-228, looked up)
chain: GDELLNICMNAKHHKRVPSPEDKLYEECIPWKDNACCTLTTSWEAHLDVSPLYNFSLFHCGLLMPGCRKHFIQAICFYECSPNLGPWIQPVGSLGWEVAPSGQGERVVNVPLCQEDCEEWWEDCRMSYTCKSNWRGGWDWSQGKNRCPKGAQCLPFSHYFPTPADLCEKTWSNSFKASPERRNSGRCLQKWFEPAQGNPNVAVARLFAS
modifications: biotinylated with the EZ link sulfo-NHS-LC-biotinylation kit (in the BLI assay only)
For B4, the Kd in assay [2] was found to be 48 nM; in assay [1], 59 nM; in the assay with R160A Izumo1_(22-254), 730 nM; with R160E Izumo1_(22-254) it was 2200 nM; with E71A Izumo1_(22-254), 96 nM; in the assay with E71K Izumo1_(22-254) it was 119 nM. Besides, the Kd in the assay with D72A Izumo1_(22-254) came out at 71 nM; with Q130A Izumo1_(22-254), 56 nM; in the assay with H157A Izumo1_(22-254) it was 1800 nM. The koff in assay [2] is 0.0194 s⁻¹; in assay [1] it was 0.0067 s⁻¹; with R160A Izumo1_(22-254), 0.0563 s⁻¹; in the assay with R160E Izumo1_(22-254), 0.0512 s⁻¹; with E71A Izumo1_(22-254), 0.0137 s⁻¹; with E71K Izumo1_(22-254) it was 0.0195 s⁻¹. Moreover, the koff came to 0.0126 s⁻¹ with D72A Izumo1_(22-254), 0.0068 s⁻¹ with Q130A Izumo1_(22-254) and 0.079 s⁻¹ in the assay with H157A Izumo1_(22-254). The kon in [2] turned out to be 420000 M⁻¹ s⁻¹; in [1], 115000 M⁻¹ s⁻¹; with R160A Izumo1_(22-254), 78000 M⁻¹ s⁻¹; with R160E Izumo1_(22-254), 32000 M⁻¹ s⁻¹; in the assay with E71A Izumo1_(22-254) it was 143000 M⁻¹ s⁻¹; with E71K Izumo1_(22-254), 165000 M⁻¹ s⁻¹. The values for the on-rate (kon) in the assay with D72A Izumo1_(22-254), in the assay with Q130A Izumo1_(22-254) and with H157A Izumo1_(22-254) were 178000 M⁻¹ s⁻¹, 127000 M⁻¹ s⁻¹ and 51000 M⁻¹ s⁻¹, respectively.

B5: E45K Juno_(20-228) (domain or fragment, human, UniProt A6ND01-1 20-228, looked up)
chain: GDELLNICMNAKHHKRVPSPEDKLYKECIPWKDNACCTLTTSWEAHLDVSPLYNFSLFHCGLLMPGCRKHFIQAICFYECSPNLGPWIQPVGSLGWEVAPSGQGERVVNVPLCQEDCEEWWEDCRMSYTCKSNWRGGWDWSQGKNRCPKGAQCLPFSHYFPTPADLCEKTWSNSFKASPERRNSGRCLQKWFEPAQGNPNVAVARLFAS
modifications: biotinylated with the EZ link sulfo-NHS-LC-biotinylation kit (in the BLI assay only)
In [1], B5 showed a Kd of 2800 nM, a koff of 0.0624 s⁻¹ and a kon of 23000 M⁻¹ s⁻¹.

B6: K163A Juno_(20-228) (domain or fragment, human, UniProt A6ND01-1 20-228, looked up)
chain: GDELLNICMNAKHHKRVPSPEDKLYEECIPWKDNACCTLTTSWEAHLDVSPLYNFSLFHCGLLMPGCRKHFIQAICFYECSPNLGPWIQPVGSLGWEVAPSGQGERVVNVPLCQEDCEEWWEDCRMSYTCKSNWRGGWDWSQGANRCPKGAQCLPFSHYFPTPADLCEKTWSNSFKASPERRNSGRCLQKWFEPAQGNPNVAVARLFAS
modifications: biotinylated with the EZ link sulfo-NHS-LC-biotinylation kit (BLI)
On to B6, for which, in assay [1], the Kd came to 97 nM, the dissociation rate constant (koff) is 0.0133 s⁻¹ and the kon amounted to 138000 M⁻¹ s⁻¹.

B7: W62A Juno_(20-228) (domain or fragment, human, UniProt A6ND01-1 20-228, looked up)
chain: GDELLNICMNAKHHKRVPSPEDKLYEECIPWKDNACCTLTTSAEAHLDVSPLYNFSLFHCGLLMPGCRKHFIQAICFYECSPNLGPWIQPVGSLGWEVAPSGQGERVVNVPLCQEDCEEWWEDCRMSYTCKSNWRGGWDWSQGKNRCPKGAQCLPFSHYFPTPADLCEKTWSNSFKASPERRNSGRCLQKWFEPAQGNPNVAVARLFAS
modifications: biotinylated with the EZ link sulfo-NHS-LC-biotinylation kit (BLI)
Regarding B7, in assay [1], the affinity, expressed as Kd, was 361 nM; the off-rate constant (koff) is 0.0412 s⁻¹; the association rate constant (kon) was 114000 M⁻¹ s⁻¹.
